Assay results: patent US20210292393A1
Values joined by “and” are separate entries in the source; they are usually repeats but may differ in a detail not shown here. Equal values may be shown once.

How the values were obtained:
Conditions in all cases: remark: other sources report otherwise
[1] = target: SARS-CoV-2 full length spike protein, V483A mutant (SARS-CoV-2), P0DTC2
[2] = target: SARS-CoV-2 full length spike protein, V483A mutant, expressed on CHO cells (SARS-CoV-2), P0DTC2
[3] = target: SARS-CoV-2 full length spike protein, V367F mutant, expressed on CHO cells (SARS-CoV-2), P0DTC2
[4] = target: SARS-CoV-2 full length spike protein, D614G mutant, expressed on CHO cells (SARS-CoV-2), P0DTC2

B1: antibody 304 (antibody, V domains shown)
VH: EVQLLESGGGLVQPGGSLRLSCAASGFTFSTYAMSWVRQAPGKGLEWVSAISGSGGSTYYADSVKGRFTISRDNSKNTLYLQMNSLRAEDTAVYYCASGYSPDYWGQGTLVTVSS
VL: AIQMTQSPSSLSASVGDRVTITCRASQGIRNDLGWYQQKPGKAPKLLIYAASSLQSGVPSRFSGSGSGTDFTLTISSLQPEDFATYYCLQDYNYPRTFGQGTKVEIK
median fluorescence intensity, fold over isotype control (fold over isotype) [1]: 0.66

B2: antibody 374 (antibody, V domains shown)
VH: QVQLQESGPGLVKPSGTLSLTCAVSGGSISSSKWWSWVRQPPGKGLEWIGEIYHSGSTNYNPSLKSRVTISVDKSKNQFSLKLSSVTAADTAVYYCARRELGEGTFTYWGQGTLVTVSS
VL: not shown
median fluorescence fold over isotype control (fold over isotype) [2]: 1.22

B3: antibody 382 (antibody, V domains shown)
VH: QVQLVESGGGVVQPGRSLRLSCAASGFTFSNYGMHWVRQAPGKGLEWMTVISFDGRNKYYADSVKGRFTISRDNSKNTLFLQMNSLTTEDTALYFCASGRRPRYSSGWSFDYWGQGTLVTVSS
VL: DIQMTQSPSSLSASVGDRVTITCQASQDIGNYLNWYQQKLGKAPNLLIYDASNLETGVPSRFSGSGSGTDFTFTINSLQPEDTATYYCQQYDDPSITFGQGTRLEIK
median fluorescence fold over isotype control (fold over isotype) [2]: 0.88

B4: antibody 383 (antibody, V domains shown)
VH: EVQLVESGGGLVQPGGSLRLSCAASGFTFSSYDMHWVRQATGKGLEWVSTIGTAGDTYYPGSVKGRFTISRENAKNSLYLQMNSLRAGDTAVYYCARVAYSSSFVYWYFDLWGRGTLVTVSS
VL: DIQMTQSPSSLSASIGDRVTITCRASQSISSYLNWYQQKPGKAPNLLIYAASSLQSGVPSRFSGSGSGTDFTLTISSLQPEDFATYYCQQSYTTPLYTFGQGTKLEIK
median fluorescence fold over isotype control (fold over isotype) [3]: 11.4 | median fluorescence fold over isotype control (fold over isotype) [4]: 6.38 | median fluorescence fold over isotype control (fold over isotype) [2]: 1.8

B5: antibody 389 (antibody, V domains shown)
VH: QVQLVESGGGVVQPGRSLRLSCAASGFTFSSYAMHWVRQAPGKGLEWVAVISYDGSNKYYADSVKGRFTISRDNSKNTLYLQMNSLRAEDTAVYYCASQGRMYVRGVDYGVYWGQGTLVTVSS
VL: NFMLTQPHSVSESPGKTVTISCTGSSGSIASNYVQWYQQRPGSAPTTVIYEDNQRPSGVPDRFSGSIDSSSNSASLTISGLKTEDEADYYCQSYDSSKISHAVFGGGTQLTVL
median fluorescence fold over isotype control (fold over isotype) [2]: 1.24

B6: antibody 390 (antibody, V domains shown)
VH: EVQLVESGGGLIQPGGSLRLSCAASGFTVSSNYMSWVRQAPGKGLEWVSIIYSGGSTYYADSVKGRFTISRDNSKNTLYLQMNSLRAEDSAVYSCATTMVRGLIISYYYGMDVWGQGTTVTVSS
VL: QSALTQPASVSGSPGQSITISCTGTSSDVGGYNYVSWYQQHPGKAPKLMIYEVSNRPSGVSNRFSGSKSGNTASLTISGLQAEDEADYYCSSYTSSSTLVFGGGTKLTVL
median fluorescence fold over isotype control (fold over isotype) [2]: 1.36

B7: antibody 413 (antibody, V domains shown)
VH: EVQLVESGGGLIQPGGSLRLSCAASGFTVSGNYMNWVRQAPGKGLEWVSVIYSGGSTYYADSVKGRFTISRANSKNTLYLQMNSLRAEDTAVYYCASTSLVRGLIILYYYGMDVWGQGTTVTVSS
VL: QSALTQPASVSGSPGQSITISCTGTSSDVGGYNYVSWYQQHPGKAPKLMIYEVSNRPSGVSNRFSGSKSGNTASLTISGLQAEDEADYYCSSYTSSSTLVFGGGTKLTVL
median fluorescence fold over isotype control (fold over isotype) [2]: 1.67

B8: antibody 436 (antibody, V domains shown)
VH: QVQVVESGGGVVQPGRSLRLSCAASGFTFSSYAMHWVRQAPGKGLEWVAVISYDGNNEYYVDPVKGRFTISRDNSKNTLYLQMNSLRAEDTALYYCATSREAIVVGGILDYWGQGTLVTVSS
VL: DIQMTQSPSSLSASVGDRVTITCQASHDINNFLNWYQQKPGQAPKLLIYDASNLETGVPSRFSGSGSGTDFTFTISSLHPEDVATYYCQQYDGLPRYVTFGQGTKLEIR
median fluorescence fold over isotype control (fold over isotype) [1]: 0.85

B9: antibody 485 (antibody, V domains shown)
VH: QVQLQESGPGLVKPSGTLSLTCAVSGASISSSNWWSWVRQPPGKGLEWIGEIYHSGSTNYNPSLKSRVTISVDKSKNQFSLKLSSVTAADTAVYYCARRSYYGSGSYYPFDYWGQGTLVTVSS
VL: QSALTQPASVSGSPGQSITISCTGTSSDVGSYNLVSWYQQHPGKAPKLMIYEGRKRPSGVSNRFSGSKSGNTASLTISGLQAEDEADYYCCSYAGSSTYVFGTGTKVTVL
median fluorescence intensity, fold over isotype control (fold over isotype) [2]: 1.11

B10: antibody 505 (antibody, V domains shown)
VH: EVQLVESGGGLVKPGGSLRLSCAASGFTFSSYSMNWVRQAPGKGLEWVSSISSSSSYIYYADSVKGRITISRDNAKNSLYLQMNSLRAEDTAVYYCAREYPNFRAEWLLSPYGMDVWGQGTTVTVSS
VL: QSALTQPASVSGSPGQSITISCTGTSSDVGSYNLVSWYQQHPGKAPKLMIYEVSKRPSGVSNRFSGSKSGNTASLTISGLQAEDEADYYCCSYAGSSTSVKVFGTGTKVTVL
median fluorescence intensity, fold over isotype control (fold over isotype) [2]: 1

B11: antibody 507 (antibody, V domains shown)
VH: QVQLQESGPGLVKPSGTLSLTCAVSGGSISSSNWWSWVRQPPGKGLEWIGEIYHSGNTNYNPSLKSRVTISVDKSKNQFSLKLSSVTAADTAVYYCARREWLRLFDYWGQGTLVTVSS
VL: QSALTQPASVSGSPGQSITISCTGTSSDVGSYNLVSWYQQHPGKAPKLMIYEVSKRPSGVSNRFSGSKSGNTASLTISGLQAEDEADYYCCSYAGSSTYVFGTGTKVTVL
median fluorescence intensity, fold over isotype control (fold over isotype) [2]: 1.12

B12: antibody 524 (antibody, V domains shown)
VH: QVQLVESGGGVVQPGRSLRLSCAASGFTFSSYAMHWVRQAPGKGLEWVAVISYDGSNKYYADSVKGRFTISRDNSKNTLYLQMNSLRAEDTAVYYCAKAGGGSYYRGFDYWGQGTLVTVSS
VL: QSVLTQPPSVSAAPGQKVTISCSGSNSNIGNNYVSWYQQLPGSAPKLLIYDNDKRPSGIPDRFSGSKSGTSATLGITGLQTGDEADYYCGAWDSSLTALVFGGGTKLTVL
median fold over isotype (fold over isotype) [1]: 0.99 and 1.25

B13: antibody 538 (antibody, V domains shown)
VH: QLQLQESGPGLVKPSETLSLTCTVSGGSISSSSYYWGWIRQPPGKGLEWIGSINYSGSTYYNPSLKSRVTISVDTSKNQFSLKLSSVTAADTAVYYCARYHDYGDDYWGQGTLVTVSS
VL: QLVLTQSPSASASLGASVKLTCTLSSGHSRYAIAWHQQQPEKGPRYLMKLNSDGSHSKGDGIPDRFSGSSSGAERYLTISSLQSEDEADYYCQTWGTGIQVFGGGTKLTVL
median fold over isotype (fold over isotype) [1]: 1.48

B14: antibody 544 (antibody, V domains shown)
VH: QVQLQQWGAGLLKPSETLSLTCAVYGGSFSGYYWSWIRQPPGKGLEWIGEINHSGSTNYNPSLKSRVTISVDTSKNQFSLKLSSVTAADTAVYYCARGFKWFGELLFGAQGTLVTVSS
VL: not shown
median fold over isotype (fold over isotype) [1]: 1.58

B15: antibody 551 (antibody, V domains shown)
VH: EVQLVESGGGLVQPGGSLRLSCAASGFTFSSYWMSWVRQAPGKGLEWVANINQDGSDKYYVDSVKGRFTISRDNAKNSLYLQMNSLRAEDTAVYYCARAPGWAAAPTFDYWGQGTLVTVSS
VL: QSALTQPRSVSGSPGQSVTISCTGTSSDVGGYNYVSWYQQHPGKAPKFMIYDVSKRPSGVPDRFSGSKSGNTASLTISGLQAEDEADYYCCSYAGSYTLVVFGGGTKLTVL
median fold over isotype (fold over isotype) [1]: 1.7
